The results in this text go back to patent US20140274782A1, “AFFINITY REAGENTS AND METHODS FOR DETECTION, PURIFICATION, AND PROTEOMIC ANALYSIS OF METHYLATED PROTEINS” (The Board of Trustees of the Leland Stanford Junior …, priority 2013, published 2014).

To fix the notation:
B1: SERBP1 (protein, UniProt Q8NC51 2-408, looked up)
SERPINE1 mRNA-binding protein …: PGHLQEGFGCVVTNRFDQLFDDESDPFEVLKAAENKKKEAGGGGVGGPGAKSAAQAAAQTNSNAAGKQLRKESQKDRKNPLPPSVGVVDKKEETQPPVALKKEGIRRVGRRPDQQLQGEGKIIDRRPERRPPRERRFEKPLEEKGEGGEFSVDRPIIDRPIRGRGGLGRGRGGRGRGMGRGDGFDSRGKREFDRHSGSDRSSFSHYSGLKHEDKRGGSGSHNWGTVKDELTESPKYIQKQISYNYSDLDQSNVTEETPEGEEHHPVADTENKENEVEEVKEEGPKEMTLDEWKAIQNKDRAKVEFNIRKPNEGADGQWKKGFVLHKSKSEEAHAEDSVMDHHFRKPANDITSQLEINFGDLGRPGRGGRGGRGGRGRGGRPNRGSRTDKSSASAPDVDDPEAFPALA
B2: DUSP3 (protein, UniProt P51452 1-185, looked up)
Dual specificity protein …: MSGSFELSVQDLNDLLSDGSGCYSLPSQPCNEVTPRIYVGNASVAQDIPKLQKLGITHVLNAAEGRSFMHVNTNANFYKDSGITYLGIKANDTQEFNLSAYFERAADFIDQALAQKNGRVLVHCREGYSRSPTLVIAYLMMRQKMDVKSALSIVRQNREIGPNDGFLAQLCQLNDRLAKEGKLKP
B3: ORC5 (protein, UniProt O43913 1-435, looked up)
Origin recognition complex …: MPHLENVVLCRESQVSILQSLFGERHHFSFPSIFIYGHTASGKTYVTQTLLKTLELPHVFVNCVECFTLRLLLEQILNKLNHLSSSEDGCSTEITCETFNDFVRLFKQVTTAENLKDQTVYIVLDKAEYLRDMEANLLPGFLRLQELADRNVTVLFLSEIVWEKFRPNTGCFEPFVLYFPDYSIGNLQKILSHDHPPEYSADFYAAYINILLGVFYTVCRDLKELRHLAVLNFPKYCEPVVKGEASERDTRKLWRNIEPHLKKAMQTVYLREISSSQWEKLQKDDTDPGQLKGLSAHTHVELPYYSKFILIAAYLASYNPARTDKRFFLKHHGKIKKTNFLKKHEKTSNHLLGPKPFPLDRLLAILYSIVDSRVAPTANIFSQITSLVTLQLLTLVGHDDQLDGPKYKCTVSLDFIRAIARTVNFDIIKYLYDFL
B4: LANCL2 (protein, UniProt Q9NS86 2-450, looked up)
LanC-like protein 2: GETMSKRLKLHLGGEAEMEERAFVNPFPDYEAAAGALLASGAAEETGCVRPPATTDEPGLPFHQDGKIIHNFIRRIQTKIKDLLQQMEEGLKTADPHDCSAYTGWTGIALLYLQLYRVTCDQTYLLRSLDYVKRTLRNLNGRRVTFLCGDAGPLAVGAVIYHKLRSDCESQECVTKLLQLQRSVVCQESDLPDELLYGRAGYLYALLYLNTEIGPGTVCESAIKEVVNAIIESGKTLSREERKTERCPLLYQWHRKQYVGAAHGMAGIYYMLMQPAAKVDQETLTEMVKPSIDYVRHKKFRSGNYPSSLSNETDRLVHWCHGAPGVIHMLMQAYKVFKEEKYLKEAMECSDVIWQRGLLRKGYGICHGTAGNGYSFLSLYRLTQDKKYLYRACKFAEWCLDYGAHGCRIPDRPYSLFEGMAGAIHFLSDVLGPETSRFPAFELDSSKRD
B5: EEF1B2 (protein, UniProt P24534 2-225, looked up)
Elongation factor 1-beta: GFGDLKSPAGLQVLNDYLADKSYIEGYVPSQADVAVFEAVSSPPPADLCHALRWYNHIKSYEKEKASLPGVKKALGKYGPADVEDTTGSGATDSKDDDDIDLFGSDDEEESEEAKRLREERLAQYESKKAKKPALVAKSSILLDVKPWDDETDMAKLEECVRSIQADGLVWGSSKLVPVGYGIKKLQIQCVVEDDKVGTDMLEEQITAFEDYVQSMDVAAFNKI

The target in the first assay is T1, G9a and GLP (Homo sapiens, UniProt Q96KQ7+Q9H9B1).
T1 sequence (Q96KQ7 2-1210 limits assumed): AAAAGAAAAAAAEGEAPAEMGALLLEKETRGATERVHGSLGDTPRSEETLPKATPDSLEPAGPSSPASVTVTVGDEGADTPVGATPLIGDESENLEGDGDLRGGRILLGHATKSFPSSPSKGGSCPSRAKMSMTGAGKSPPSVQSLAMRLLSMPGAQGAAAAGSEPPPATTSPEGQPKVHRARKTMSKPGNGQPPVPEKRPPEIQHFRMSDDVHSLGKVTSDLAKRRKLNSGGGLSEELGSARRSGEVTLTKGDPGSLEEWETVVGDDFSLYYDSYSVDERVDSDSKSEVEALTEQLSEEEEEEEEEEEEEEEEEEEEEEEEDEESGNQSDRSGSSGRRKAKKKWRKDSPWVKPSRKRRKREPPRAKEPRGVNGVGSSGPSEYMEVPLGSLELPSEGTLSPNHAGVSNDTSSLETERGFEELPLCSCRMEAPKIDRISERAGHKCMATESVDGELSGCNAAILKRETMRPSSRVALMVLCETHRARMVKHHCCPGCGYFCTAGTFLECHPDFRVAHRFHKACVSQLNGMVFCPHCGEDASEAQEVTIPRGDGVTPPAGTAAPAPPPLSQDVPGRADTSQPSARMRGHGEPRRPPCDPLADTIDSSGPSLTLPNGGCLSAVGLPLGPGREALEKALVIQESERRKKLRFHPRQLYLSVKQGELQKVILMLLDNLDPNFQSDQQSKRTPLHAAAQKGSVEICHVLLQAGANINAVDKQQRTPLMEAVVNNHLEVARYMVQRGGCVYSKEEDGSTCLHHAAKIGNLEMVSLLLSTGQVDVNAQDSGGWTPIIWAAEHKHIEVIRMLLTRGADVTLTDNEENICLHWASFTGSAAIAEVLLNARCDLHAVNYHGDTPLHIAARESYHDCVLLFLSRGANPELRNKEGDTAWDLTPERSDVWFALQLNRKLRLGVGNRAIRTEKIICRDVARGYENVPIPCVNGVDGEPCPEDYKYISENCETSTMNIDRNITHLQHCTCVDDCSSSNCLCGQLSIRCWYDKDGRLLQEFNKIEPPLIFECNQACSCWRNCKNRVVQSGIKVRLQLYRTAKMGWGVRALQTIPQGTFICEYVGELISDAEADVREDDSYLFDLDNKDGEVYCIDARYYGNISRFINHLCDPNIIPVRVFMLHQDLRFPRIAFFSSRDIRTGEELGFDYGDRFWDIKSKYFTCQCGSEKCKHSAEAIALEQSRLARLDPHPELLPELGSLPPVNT
T1 sequence (Q9H9B1 2-1298 limits assumed): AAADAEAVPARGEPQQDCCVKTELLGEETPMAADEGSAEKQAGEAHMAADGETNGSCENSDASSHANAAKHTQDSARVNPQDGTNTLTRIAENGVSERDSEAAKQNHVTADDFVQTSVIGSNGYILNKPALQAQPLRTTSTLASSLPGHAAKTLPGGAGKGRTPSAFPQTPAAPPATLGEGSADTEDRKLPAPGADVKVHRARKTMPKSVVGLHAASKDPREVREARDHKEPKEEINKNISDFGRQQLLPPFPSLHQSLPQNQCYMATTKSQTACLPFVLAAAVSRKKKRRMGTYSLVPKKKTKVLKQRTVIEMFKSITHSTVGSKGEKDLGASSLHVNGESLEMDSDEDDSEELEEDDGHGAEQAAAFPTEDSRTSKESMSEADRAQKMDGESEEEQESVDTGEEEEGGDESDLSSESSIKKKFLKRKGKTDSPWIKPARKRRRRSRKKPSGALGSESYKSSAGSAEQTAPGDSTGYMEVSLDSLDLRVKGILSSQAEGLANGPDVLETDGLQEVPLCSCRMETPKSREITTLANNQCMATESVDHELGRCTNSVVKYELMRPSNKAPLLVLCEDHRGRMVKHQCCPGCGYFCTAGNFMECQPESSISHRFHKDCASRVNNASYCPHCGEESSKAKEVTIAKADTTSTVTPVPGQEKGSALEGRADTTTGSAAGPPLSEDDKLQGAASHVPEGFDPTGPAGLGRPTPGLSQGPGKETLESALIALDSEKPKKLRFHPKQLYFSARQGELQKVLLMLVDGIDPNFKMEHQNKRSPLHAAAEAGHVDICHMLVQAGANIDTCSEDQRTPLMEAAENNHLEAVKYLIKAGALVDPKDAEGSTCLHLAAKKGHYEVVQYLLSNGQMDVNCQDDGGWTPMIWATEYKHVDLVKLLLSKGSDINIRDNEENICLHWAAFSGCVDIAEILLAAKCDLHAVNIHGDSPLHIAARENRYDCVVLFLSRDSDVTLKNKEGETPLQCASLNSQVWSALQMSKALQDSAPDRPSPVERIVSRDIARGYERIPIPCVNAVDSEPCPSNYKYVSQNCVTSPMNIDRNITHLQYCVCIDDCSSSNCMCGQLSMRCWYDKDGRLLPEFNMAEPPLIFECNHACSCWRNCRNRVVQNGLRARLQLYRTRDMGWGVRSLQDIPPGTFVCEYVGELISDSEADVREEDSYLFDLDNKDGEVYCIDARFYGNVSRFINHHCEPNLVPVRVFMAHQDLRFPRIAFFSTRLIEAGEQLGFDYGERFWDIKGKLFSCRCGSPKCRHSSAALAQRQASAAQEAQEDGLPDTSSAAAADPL
The experiment in a line: Triple SILAC pull-down after UNC0638 treatment of 293T cells, DMSO/UNC0638 ratio of protein captured by 3×MBT.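 Note: mass spectrometry (Q-Exactive) SILAC quantitation, DMSO/UNC0638 ratio computed after subtracting 3×MBTD355N mutant pull-down background, only proteins with at least twofold 3×MBT over mutant signal considered.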 It is filed as cell-based. The settings on record: SILAC ratio DMSO relative to UNC0638, pull-down with 3xMBT; UNC0638 in heavy SILAC media; all values in log base 2. Details: cells were treated for 24 hours with UNC0638 at 2.5 μM or DMSO vehicle control; endogenous in cells; host or cells: HEK 293T.
With B1, the “Relative to UNC0638 UNC Heavy” value is −0.45 log base 2.
The same measure, in the same setting: to B2 belongs 0.47 log base 2; to B3, −2.12 log base 2.
The same measure, in the same setting: next, B4: −0.05 log base 2; B5: 0.01 log base 2.

The same assay, now with this note: SILAC ratio DMSO relative to UNC0638, pull-down with 3xMBT; UNC0638 in light SILAC media; all values in log base 2.
Consider B2, for which the “Relative to UNC0638 UNC Light” value is recorded as −1.35 log base 2.
Same read-out and setting: to B3 belongs 0.06 log base 2; to B4, −0.26 log base 2; to B5, −0.64 log base 2.

Still in this assay, the particulars now being: average of UNC Light and UNC Heavy experiments; all values in log base 2.
With B1, the “Relative to UNC0638 Average” value is −0.45 log base 2.
Still for that read-out and setting: to B2 belongs −0.44 log base 2; to B3, −1.03 log base 2; to B4, −0.16 log base 2.
Turning to B5, the “Relative to UNC0638 Average” value is −0.31 log base 2.

The next assay concerns 3×MBT domain of L3MBTL1. Description: Triple SILAC pull-down, 3xMBT/3xMBTD355N ratio (cytoplasmic, nuclear and chromatin fractions of 293T cells).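 Note: proteins quantified with MaxQuant, requiring at least two unique peptides and quantification in both label directions, normalized to the mean of proteins from a digested loading control.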 It is filed as binding, human. As to conditions: SILAC ratio 3xMBT vs 3xMBTD355N pull-down, 293T cells; experiment with UNC0638 in heavy SILAC media; all values in log base 2.
B1: the “3xMBT/D355N UNC Heavy” value is given as −0.66 log base 2.
Turning to B2, the “3xMBT/D355N UNC Heavy” value worked out at 1.97 log base 2.
The same measure, in the same setting: to B3 belongs 1.97 log base 2.
As to B4, the “3xMBT/D355N UNC Heavy” value is 1.44 log base 2.
For B5, the “3xMBT/D355N UNC Heavy” value is on record as −0.81 log base 2.

The same assay, now with this note: SILAC ratio 3xMBT vs 3xMBTD355N pull-down, 293T cells; experiment with UNC0638 in light SILAC media; all values in log base 2.
In the case of B1, the “3xMBT/D355N UNC Light” value is −0.06 log base 2.
Still for that read-out and setting: next, B2: 1.19 log base 2; B3: 2.52 log base 2.
On the same count and under the same terms, next, B4: 1.81 log base 2.
The same measure, in the same setting: next, B5: −0.32 log base 2.
